Target: EphA4 receptor extracellular domain fused to a human Fc region (human)
Assay: inhibition of ephrin-A5 AP binding to EphA4

Chain of EphA4 receptor extracellular domain fused to a human Fc region (human) (Q03137 20-547): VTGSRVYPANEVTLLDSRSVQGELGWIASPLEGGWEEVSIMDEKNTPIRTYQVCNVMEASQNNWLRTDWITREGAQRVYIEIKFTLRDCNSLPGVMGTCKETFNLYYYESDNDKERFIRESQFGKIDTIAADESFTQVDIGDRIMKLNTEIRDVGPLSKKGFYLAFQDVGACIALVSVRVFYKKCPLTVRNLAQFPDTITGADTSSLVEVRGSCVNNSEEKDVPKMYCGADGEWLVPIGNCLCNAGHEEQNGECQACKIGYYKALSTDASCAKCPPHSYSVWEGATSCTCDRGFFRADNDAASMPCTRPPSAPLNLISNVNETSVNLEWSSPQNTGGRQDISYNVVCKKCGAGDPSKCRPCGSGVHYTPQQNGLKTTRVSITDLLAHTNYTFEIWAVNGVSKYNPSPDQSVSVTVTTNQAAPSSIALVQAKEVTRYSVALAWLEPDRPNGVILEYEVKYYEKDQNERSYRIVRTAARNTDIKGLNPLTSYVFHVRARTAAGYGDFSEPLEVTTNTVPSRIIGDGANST

APY peptide (synthetic, biotinylated) gave a concentration required for similar levels of inhibition of ephrin-A5 AP binding of 10 µM.

Work on KYL peptide (synthetic, biotinylated) yielded a concentration that almost completely inhibited ephrin-A5 AP binding of 1 µM.

Substance VTM peptide (synthetic, biotinylated) has a concentration required for similar levels of inhibition of ephrin-A5 AP binding of 100 µM.
